Target: T1, Mms4 (S. cerevisiae, UniProt P38257 1-691)
T1 sequence (looked up): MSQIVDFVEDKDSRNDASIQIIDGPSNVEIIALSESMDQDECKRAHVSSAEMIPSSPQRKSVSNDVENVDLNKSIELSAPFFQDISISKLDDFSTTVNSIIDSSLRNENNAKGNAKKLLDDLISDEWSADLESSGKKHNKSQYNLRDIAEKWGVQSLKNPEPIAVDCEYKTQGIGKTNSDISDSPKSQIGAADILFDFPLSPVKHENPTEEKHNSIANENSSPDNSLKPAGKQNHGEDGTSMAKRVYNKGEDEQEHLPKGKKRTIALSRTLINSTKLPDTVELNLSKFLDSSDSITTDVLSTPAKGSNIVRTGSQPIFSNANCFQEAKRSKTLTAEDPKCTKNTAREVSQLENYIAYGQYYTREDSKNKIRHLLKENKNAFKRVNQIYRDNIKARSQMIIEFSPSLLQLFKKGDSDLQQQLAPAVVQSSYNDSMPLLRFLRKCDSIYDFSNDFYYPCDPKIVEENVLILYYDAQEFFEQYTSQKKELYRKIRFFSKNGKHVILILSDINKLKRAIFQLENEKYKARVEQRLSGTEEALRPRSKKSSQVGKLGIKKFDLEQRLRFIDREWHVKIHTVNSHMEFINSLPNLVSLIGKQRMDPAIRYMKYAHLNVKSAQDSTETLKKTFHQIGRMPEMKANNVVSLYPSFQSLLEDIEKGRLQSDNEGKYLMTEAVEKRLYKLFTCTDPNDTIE
Assay: cross-linking

B1: Mus81 (enzyme, S. cerevisiae, UniProt Q04149 1-632, looked up)
chain: MELSSNLKDLYIEWLQELVDGLTPKQEQLKIAYEKAKRNLQNAEGSFYYPTDLKKVKGIGNTIIKRLDTKLRNYCKIHHISPVEAPSLTQTSSTRPPKRTTTALRSIVNSCENDKNEAPEEKGTKKRKTRKYIPKKRSGGYAILLSLLELNAIPRGVSKEQIIEVAGKYSDHCMTPNFSTKEFYGAWSSIAALKKHSLVLEEGRPKRYSLTEEGVELTKSLKTADGISFPKENEEPNEYSVTRNESSEFTANLTDLRGEYGKEEEPCDINNTSFMLDITFQDLSTPQRLQNNVFKNDRLNSQTNISSHKLEEVSDDQTVPDSALKAKSTIKRRRYNGVSYELWCSGDFEVFPIIDHREIKSQSDREFFSRAFERKGMKSEIRQLALGDIIWVAKNKNTGLQCVLNTIVERKRLDDLALSIRDNRFMEQKNRLEKSGCEHKYYLIEETMSGNIGNMNEALKTALWVILVYYKFSMIRTCNSDETVEKIHALHTVISHHYSQKDLIVIFPSDLKSKDDYKKVLLQFRREFERKGGIECCHNLECFQELMGKGDLKTVGELTIHVLMLVKGISLEKAVAIQEIFPTLNKILMAYKTCSSEEEAKLLMFNVLGDAPGAKKITKSLSEKIYDAFGKL
binding result: binds

Reference: paper PMC4041439 (Nucleic Acids Research, 2014)
